The supplement of paper PMC12042874
± gives the uncertainty stated by the source.

Experiment: amyloid nucleation score (Sup35N fusion, yeast selection) (log enrichment); library NNK2; higher = more nucleation; inactive = no reads after selection
How it was run: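 For the nucleation score, DiMSum gave the log enrichment of output over input reads, centred on the mode score of non-aggregating sequences. Psi-negative yeast expressing Sup35N fused to peptides of 20 random codons were induced with 100 μM copper sulfate for 24 hours and grown 7 days at 30°C on medium lacking adenine and uracil. Input and output plasmid inserts were Illumina-sequenced, and sequences with under 100 input reads were excluded.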

In the case of ERDGSIMCSWTVSEHKSCGY, the amyloid nucleation score is reported as “inactive”.
In the case of CFIFKCKKCHLYPMDSVICQ, the amyloid nucleation score is reported as “inactive”.
In the case of RFYLVIFFVTL, the amyloid nucleation score is reported as “inactive”.
With RRWQTTS the amyloid nucleation score was “inactive”.
In the case of THLSWQKMWFLIVHALKICL, the amyloid nucleation score is reported as “inactive”.
In the case of LNVDP, the amyloid nucleation score is reported as “inactive”.
In the case of FVSMNAGVYVGHRGHIMEFI, the amyloid nucleation score is reported as “inactive”.
For CVVTSVIENGFFLQFIMFYQ, the amyloid nucleation score was “inactive”.
For LRTIHYPC, the amyloid nucleation score was “inactive”.
With NRKLWVYIFSELSDDGLQFR the amyloid nucleation score was “inactive”.
In the case of YSLYEYFKSHLRKACVMPGW, the amyloid nucleation score is reported as “inactive”.
In the case of GNRYSLCEAYATYLFSLDWY, the amyloid nucleation score is reported as “inactive”.
With WGIWFKPALFRNLYTIFAWL the amyloid nucleation score was “inactive”.
In the case of YCDIKIEDLNLGGETGSDRR, the amyloid nucleation score is reported as “inactive”.
For GYSILKC, the amyloid nucleation score was “inactive”.

In order of falling amyloid nucleation score:
1. SINTAVSCFMAGICNGHRSE  8.246 ± 0.061
2. DYITCQFYLTVFELSCCMSC  7.932 ± 0.047
3. LCLVQLSDSCNQ  7.917 ± 0.055
4. NLLLFYPAISVSCVNYTMRV  7.127 ± 0.052
5. MVSMFNGYAVLHCPLCIITR  7.11 ± 0.047
6. SKVFCTIFAWVVVE  7.038 ± 0.033
7. MYPRPVYNIKLFLKEVWGQY  6.933 ± 0.046
8. EFIMTCAQVPRTFDVHSNRS  6.479 ± 0.054
9. YNIFPIISLITRNK  6.42 ± 0.064
10. LLMVRVGRSQVRSNKNRH  5.984 ± 0.054
11. ESKIACCDMMLW  5.89 ± 0.062
12. RNYLNMVYGLFFCIHCSCFS  5.853 ± 0.05
13. SSIVSSPVCPLCGWGWF  5.55 ± 0.069
14. NSVLVLAWWVNANCGLREGG  5.454 ± 0.041
15. CLLNVTEAFTGGSMIGWHFR  5.393 ± 0.049
16. LFCVRSRLGVGCYRIWG  5.364 ± 0.046
17. NFVILLCKQN  5.2 ± 0.053
18. FLNNVVYRHCDSYLTGNCRN  5.151 ± 0.041
19. SSRVDVVISHQREAIGSRQC  5.11 ± 0.077
20. GISVICLYGVQYSDVGGVNL  5.098 ± 0.043
21. VDRHYRSLRFVVGQSVLHSK  4.952 ± 0.046
22. TCSGLCYIHWACIIGKDNYM  4.9 ± 0.087
23. DDHLCSFLRFFTNKRKRA  4.67 ± 0.09
24. IYTRFQLFR  4.5 ± 0.069
25. DIVMCFLGRHHQSTEAGLSM  4.49 ± 0.056
26. KICWYQFKANMASQ  4.41 ± 0.086
27. YLGVSSCLMSSSGRSLASTL  4.39 ± 0.09
28. MRGVTLYDYFDGIRIWRPLR  3.76 ± 0.12
29. LVSTEIN  3.75 ± 0.052
30. LLYRYYSF  3.72 ± 0.056
31. SALSLICDRWFDCFLRGTQY  3.66 ± 0.15
32. VICRGITVARWSF  3.58 ± 0.065
33. TMQIFMKSMINSGICSTYHL  3.47 ± 0.08
34. IFMRVHLSMIVELKTHPDI  3.2 ± 0.056
35. NGARKCFIDAHWESAVANPE  3.2 ± 0.099
36. ILISLESSPISGMKCVLQRF  2.85 ± 0.12
37. LSSEVISSSHALQKTSICRF  2.72 ± 0.13
38. LVWWLSNRV  2.41 ± 0.088
39. TIQGLFRFSADVRTCAFMGS  2.33 ± 0.15
40. RSVRSFCVWKVELFVRSEGM  2.01 ± 0.15
41. WCNTRRCNSPPLVVC  1.86 ± 0.12
42. ASRPWMMYPHESARRSR  1.6 ± 0.22
43. MGVRY  1.42 ± 0.38
44. VLYWCPRDSKTWLSGRLLPM  1.33 ± 0.47
45. RTSKGAA  1.21 ± 0.45
46. PDFLAVGHVSTFVHFTVETG  1.16 ± 0.38
47. DVSVNRARFPREF  1.1 ± 0.17
48. GGLELLLGKMNVNVAMLKSF  1.09 ± 0.17
49. LQCLSRASGHCPGRSTFWHF  1.02 ± 0.27
50. LYDFRDSYAYVCLTGYKYLG  1.02 ± 0.57
51. DETNGTGSRVRLVRRYER  0.946 ± 0.27
52. ISRGRRYRTPVEILGGHMRH  0.917 ± 0.53
53. GGIAACPGLEINWKFDLVQW  0.914 ± 0.32
54. CGLKDTTKLAVDVTPQNM  0.908 ± 0.3
55. RSDVSLVYNLWALWWAR  0.906 ± 0.52
56. ECVLMTGTMWSTSSALW  0.877 ± 0.53
57. GMVCVP  0.876 ± 0.25
58. YSFAMLGGQESRMSMCCGER  0.791 ± 0.32
59. CRLGLLF  0.767 ± 0.66
60. AWEAPPYMCRDILRSWRGRL  0.757 ± 0.51
61. TDCFQFS  0.713 ± 0.58
62. SSNVK  0.685 ± 0.4
63. SCTPGLHQGCRCSVLLWEHR  0.681 ± 0.47
64. GGVAETGERFWHSRLHG  0.679 ± 0.81
65. SRIFVRYTLAKLVDFSCPES  0.61 ± 0.46
66. VSEQSMQCGVKFRHGTPSMV  0.607 ± 0.38
67. RLDLYRNMAMVVWQSIDEPP  0.574 ± 0.41
68. GALRPAFLSCKMVWR  0.528 ± 0.49
69. NYWWYVPW  0.527 ± 0.51
70. GDGRVYMVIGSGRGRV  0.506 ± 0.41
71. KCIIRTNKFFAFHVCKLTVN  0.498 ± 0.3
72. GLRNDGAEVINSQPFLAHMC  0.497 ± 0.5
73. SNSHNSRSIAY  0.475 ± 0.57
74. SDHTVELFTCKPVMQTRQRT  0.439 ± 0.27
75. LKRYKVRQFSTCLWAGAYSQ  0.407 ± 0.23
76. CNVDYLSDVYYHVPMQDQSL  0.368 ± 0.48
77. MGLSWLSLLLKCRCQWACKL  0.306 ± 0.65
78. NNYIVTW  0.233 ± 0.74
79. HKCTSAV  0.229 ± 0.61
80. MSARECWTIRFPYRVIVWEV  0.214 ± 0.74
81. WCHVSLMYRGYLKSGARDGN  0.199 ± 0.43
82. VLFNKSLLRWSNWLV  0.166 ± 0.26
83. SLWTYRARTKGCHYVHSVLM  0.164 ± 1.1
84. SWKWYRS  0.157 ± 1
85. YVMSAVFYSVRFVAIETCKV  0.155 ± 0.57
86. FASVLLCSIRRALGRVVRPL  0.144 ± 0.55
87. GSYFGHNIHLGAVWPIIGYP  0.117 ± 0.3
88. GLSAHYA  0.113 ± 1.1
89. PAERSCGQCFQEFSWY  0.102 ± 1.1
90. VERFWLIWSRAYYFDFRVRE  0.098 ± 0.79
91. TWNGVWLGDFACFSWYMGPL  0.094 ± 0.36
92. VRLVMI  0.019 ± 1.1
93. YGKKCLSKAKKSTKISLPG  0.016 ± 1.1
94. HCCKSVRLESIRMRCGACYL  0.007 ± 0.56
95. SYTGS  -0.019 ± 0.34
96. NTMLAFAKKSRMHFSLLLLV  -0.022 ± 0.37
97. FLNKDGNIV  -0.022 ± 0.55
98. VFSSYYRSKEFTCIVLLGL  -0.026 ± 0.33
99. TFAPDLS  -0.053 ± 0.56
100. ASLIRGATKGQTVCEMALSG  -0.07 ± 0.27
101. HIRLRY  -0.101 ± 0.8
102. YFILVLVESLHPSGVPAFWC  -0.103 ± 0.65
103. LRTYYPRNVGA  -0.117 ± 0.5
104. TLFLSMLLMASSCYMTCCGD  -0.119 ± 0.55
105. VENVTDGAVSARYDDMDTSS  -0.179 ± 0.3
106. KDWGFRNTCG  -0.184 ± 1.1
107. CLEHHNIWVILLVER  -0.207 ± 0.63
108. LIVKLANTGRSQHHIRSWLS  -0.212 ± 0.38
109. DIVIDRNMSLWDPFNIVPFE  -0.27 ± 0.79
110. RYFLYFCYVGPNSAMFLSR  -0.27 ± 1.1
111. SDICTLAEQSGASIRDRLTL  -0.284 ± 1.1
112. RNARDSQYDISGACGLFRDR  -0.287 ± 0.27
113. FSGSTIDWL  -0.302 ± 0.3
114. LVSESTLINSFLQIWFWSTL  -0.324 ± 1.1
115. VISCQKPGDIKTYNRVGTTD  -0.35 ± 0.23
116. RSCSMMVVHLYRGYGKFDTP  -0.354 ± 0.76
117. LTHEKLKGLYCTA  -0.404 ± 0.32
118. CMDQNVEPCSLVWQTYFPCY  -0.419 ± 0.6
119. KYVGSWITTDVSFECTVI  -0.46 ± 1
120. PNMGLVNCRRNFCCRLWRIC  -0.469 ± 1.1
121. LRYPKRGFPNHVLSIESKLD  -0.479 ± 1
122. THLWVNSFMIDPFRSESAAT  -0.499 ± 0.54
123. AIFDTIYC  -0.541 ± 1.1
124. FRGLVILNRNGVCDILEYGC  -0.58 ± 0.27
125. RGKFHCFL  -0.599 ± 0.41
126. VGSGGKGSMFYGYIELIFM  -0.641 ± 1.1
127. MVEHLCNNHSRFLYSAWGIE  -0.641 ± 0.56
128. PYWFRFLSYVQMLEYFCAPV  -0.764 ± 0.36
129. TQIFYSLRILLVDKLVSCGA  -0.787 ± 0.39
130. YTTNIF  -0.793 ± 0.49
131. NRTCVLSNPFPFPHNIPGVC  -0.815 ± 0.54
132. MLSQASKT  -0.84 ± 1.1
133. SSFCKPLKVRWLGVIVQLSV  -0.872 ± 0.45
134. VIRSLSFLSYIWVDKGVGVV  -0.89 ± 0.53
135. LLYTDYMMIYCIAFMLSDDY  -0.916 ± 1.1
136. VYLFDTYGCSEQFHSVVGYK  -0.916 ± 0.76
137. VIYSELGYHREPVLCG  -0.972 ± 0.49
138. FDDRMCLCTIKQSK  -1 ± 0.78
139. KAYCVHSPVVCISGRVLDSG  -1 ± 1.1
140. NNSQEFSSYTWMNYLLIVKW  -1.02 ± 1
141. DSFLKKCSLIRIQVRAVFVL  -1.14 ± 1
142. YRVFRFCNMASYLVSICHNG  -1.2 ± 0.64
143. QSFNGS  -1.2 ± 0.54
144. LVFLIETRNFFRLHLSGCWA  -1.27 ± 0.75
145. NFSFRLYLLLETSIMYIGKT  -1.3 ± 0.38
146. SNMASIFTPKRSFNSEVENQ  -1.31 ± 0.61
147. FYTYCSLGWTEAAGAVFLES  -1.34 ± 0.75
148. NTGSLWG  -1.41 ± 1.1
149. CYFSLQNSKDMRDLELDAIN  -1.46 ± 0.55
150. MIYERASSVRISFGMLRFRS  -1.48 ± 1.1
151. RLNLGYYKEAVYN  -1.65 ± 0.63
152. KIRFIPTPKYHEIYMNAAIG  -1.7 ± 0.75
153. AILFSIFISVGRKWLFSASH  -1.78 ± 1.1
154. DNCLTGIEWI  -1.83 ± 1
155. VEIFNLMSGTIIPGLSKLMK  -2.02 ± 0.45
156. LYKSSIA  -2.08 ± 0.49
157. YGLIFNLASFMLRGPRTSFS  -2.15 ± 0.64
